Data: the supplement of paper PMC10567573

B1: FLOT1 (parent)
chain: QMAKKAEAFQLYQEAAQLDMLLEK
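Further: lentivirally expressed fusions sorted by FACS into six bins by GFP to DsRed ratio, PSI derived from sequencing read proportions per bin multiplied by bin number.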

Variants of: B1
Assay: protein stability index of a GFP-peptide fusion (GPS, HEK-293T) (PSI 1-6); higher = more stable
Conditions: c terminus: a fixed tail appended
With QMAKKAEAFQLYQEAAQLDILLEK the protein stability index was 3.46.
QMAKKAEAFQLYQEAAQLDFLLEK showed a protein stability index of 2.25.
In the case of QMAKKAEAFQLYQEAAQLDNLLEK, the protein stability index is reported as 2.47.
In the case of QMAKKAEAFQLYQEAAQLDELLEK, the protein stability index is reported as 3.76.
Variant QMAKKAEAFQLYQEAAQLDHLLEK has a protein stability index of 2.94.
Work on QMAKKAEAFQLYQEAAQLDDLLEK yielded a protein stability index of 4.03.
For QMAKKAEAFQLYQEAAQLDCLLEK, the protein stability index was 1.97.
With QMAKKAEAFQLYQEAAQLDGLLEK the protein stability index was 3.94.
QMAKKAEAFQLYQEAAQLDLLLEK showed a protein stability index of 1.85.
Variant QMAKKAEAFQLYQEAAQLDALLEK has a protein stability index of 2.75.
Work on QMAKKAEAFQLYQEAAQLDKLLEK yielded a protein stability index of 2.55.
QMAKKAEAFQLYQEAAQWDMLLEK gave a protein stability index of 2.03.
Variant QMAKKAEAFQLYQEAAQNDMLLEK has a protein stability index of 2.66.
QMAKKAEAFQLYQEAAQYDMLLEK gave a protein stability index of 1.46.
QMAKKAEAFQLYQEAAQSDMLLEK gave a protein stability index of 2.51.
QMAKKAEAFQLYQEAAQFDMLLEK showed a protein stability index of 2.13.
For QMAKKAEAFQLYQEAAQHDMLLEK, the protein stability index was 1.83.
For QMAKKAEAFQLYQEAAQTDMLLEK, the protein stability index was 3.56.
For QMAKKAEAFQLYQEAAQEDMLLEK, the protein stability index was 3.61.
Work on QMAKKAEAFQLYQEAAQIDMLLEK yielded a protein stability index of 2.17.
In the case of QMAKKAEAFQLYQEAAQPDMLLEK, the protein stability index is reported as 3.9.
QMAKKAEAFQLYQEAAQCDMLLEK gave a protein stability index of 3.66.
With QMAKKAEAFQLYQEAAQMDMLLEK the protein stability index was 2.22.
For QMAKKAEAFQLYQEAAQDDMLLEK, the protein stability index was 3.52.
Variant QMAKKAEAFQLYQEAAQGDMLLEK has a protein stability index of 3.8.
QMAKKAEAFQLYQEAAQADMLLEK showed a protein stability index of 1.85.
Work on QMAKKAEAFQLYQEAAQKDMLLEK yielded a protein stability index of 2.9.
QMAKKAEAFQLYQEAAQVDMLLEK showed a protein stability index of 1.85.
Work on QMAKKAEAFQLYQEEAQLDMLLEK yielded a protein stability index of 4.04.
In the case of QMAKKAEAFQLYQETAQLDMLLEK, the protein stability index is reported as 2.76.
Variant QMAKKAEAFQLYQEHAQLDMLLEK has a protein stability index of 2.2.
With QMAKKAEAFQLYQEFAQLDMLLEK the protein stability index was 2.24.
QMAKKAEAFQLYQENAQLDMLLEK showed a protein stability index of 2.32.
Variant QMAKKAEAFQLYQEYAQLDMLLEK has a protein stability index of 2.21.
Variant QMAKKAEAFQLYQEQAQLDMLLEK has a protein stability index of 1.44.
With QMAKKAEAFQLYQEVAQLDMLLEK the protein stability index was 2.33.
QMAKKAEAFQLYQEWAQLDMLLEK showed a protein stability index of 2.68.
QMAKKAEAFQLYQESAQLDMLLEK showed a protein stability index of 2.49.
With QMAKKAEAFQLYQERAQLDMLLEK the protein stability index was 2.92.
Work on QMAKKAEAFQLYQEKAQLDMLLEK yielded a protein stability index of 1.56.
Variant QMAKKAEAFQLYQEPAQLDMLLEK has a protein stability index of 4.27.
Variant QMAKKAEAFQLYQEMAQLDMLLEK has a protein stability index of 1.24.
For QMAKKAEAFQLYQEIAQLDMLLEK, the protein stability index was 2.1.
In the case of QMAKKAEAFQLYQEAWQLDMLLEK, the protein stability index is reported as 1.35.
Variant QMAKKAEAFQLYQEAKQLDMLLEK has a protein stability index of 3.59.
QMAKKAEAFQLYQEANQLDMLLEK showed a protein stability index of 2.45.
In the case of QMAKKAEAFQLYQEAMQLDMLLEK, the protein stability index is reported as 2.79.
QMAKKAEAFQLYQEASQLDMLLEK gave a protein stability index of 3.68.
In the case of QMAKKAEAFQLYQEAHQLDMLLEK, the protein stability index is reported as 3.3.
QMAKKAEAFQLYQEADQLDMLLEK showed a protein stability index of 3.24.
For QMAKKAEAFQLYQEAGQLDMLLEK, the protein stability index was 4.14.
In the case of QMAKKAEAFQLYQEAIQLDMLLEK, the protein stability index is reported as 1.44.
Variant QMAKKAEAFQLYQEAPQLDMLLEK has a protein stability index of 4.27.
QMAKKAEAFQLYQEATQLDMLLEK gave a protein stability index of 1.85.
Variant QMAKKAEAFQLYQEAEQLDMLLEK has a protein stability index of 3.98.
For QMAKKAEAFQLYQEAVQLDMLLEK, the protein stability index was 1.1.
QMAKKAEAFQLYQEAYQLDMLLEK showed a protein stability index of 1.93.
Work on QMAKKAEAFQLYQEAQQLDMLLEK yielded a protein stability index of 3.31.
QMAKKAEAFQLYQEALQLDMLLEK showed a protein stability index of 2.63.
Work on QMAKKAEAFQLYQEARQLDMLLEK yielded a protein stability index of 3.45.
For QMAKKAEAFQLYQEAAELDMLLEK, the protein stability index was 1.89.
With QMAKKAEAFQLYQEAALLDMLLEK the protein stability index was 1.58.
Variant QMAKKAEAFQLYQEAAFLDMLLEK has a protein stability index of 2.6.
Variant QMAKKAEAFQLYQEAAILDMLLEK has a protein stability index of 1.72.
QMAKKAEAFQLYQEAATLDMLLEK showed a protein stability index of 1.19.
QMAKKAEAFQLYQEAARLDMLLEK showed a protein stability index of 2.46.
QMAKKAEAFQLYQEAASLDMLLEK showed a protein stability index of 1.88.
For QMAKKAEAFQLYQEAADLDMLLEK, the protein stability index was 3.81.
Work on QMAKKAEAFQLYQEAACLDMLLEK yielded a protein stability index of 1.71.
QMAKKAEAFQLYQEAAWLDMLLEK gave a protein stability index of 4.61.
Work on QMAKKAEAFQLYQEAAVLDMLLEK yielded a protein stability index of 1.14.
Work on QMAKKAEAFQLYQEAAMLDMLLEK yielded a protein stability index of 1.02.
With QMAKKAEAFQLYQEAAKLDMLLEK the protein stability index was 1.65.
QMAKKAEAFQLYQEAAALDMLLEK showed a protein stability index of 1.47.
QMAKKAEAFQLYQEAAPLDMLLEK showed a protein stability index of 3.95.
In the case of QMAKKAEAFQLYQEAAQLNMLLEK, the protein stability index is reported as 1.91.
Work on QMAKKAEAFQLYQEAAQLLMLLEK yielded a protein stability index of 1.24.
In the case of QMAKKAEAFQLYQEAAQLKMLLEK, the protein stability index is reported as 1.65.
QMAKKAEAFQLYQEAAQLQMLLEK showed a protein stability index of 1.83.
Work on QMAKKAEAFQLYQEAAQLWMLLEK yielded a protein stability index of 1.34.
With QMAKKAEAFQLYQEAAQLRMLLEK the protein stability index was 1.53.
QMAKKAEAFQLYQEAAQLMMLLEK showed a protein stability index of 2.85.
QMAKKAEAFQLYQEAAQLHMLLEK showed a protein stability index of 1.8.
Variant QMAKKAEAFQLYQEAAQLIMLLEK has a protein stability index of 1.5.
With QMAKKAEAFQLYQEAAQLVMLLEK the protein stability index was 3.13.
With QMAKKAEAFQLYQEAAQLFMLLEK the protein stability index was 1.69.
Variant QMAKKAEAFQLYQEAAQLEMLLEK has a protein stability index of 1.87.
QMAKKAEAFQLYQEAAQLYMLLEK showed a protein stability index of 2.35.
For QMAKKAEAFQLYQEAAQLGMLLEK, the protein stability index was 1.48.
In the case of QMAKKAEAFQLYQEAAQLTMLLEK, the protein stability index is reported as 2.66.
For QMAKKAEAFQLYQEAAQLCMLLEK, the protein stability index was 2.13.
Work on QMAKKAEAFQLYQEAAQLSMLLEK yielded a protein stability index of 1.29.
Work on QMAKKAEAFQLYQEAAQLAMLLEK yielded a protein stability index of 2.65.
In the case of QMAKKAEAFQLYQEAAQLPMLLEK, the protein stability index is reported as 3.95.
